Results as given in PMC10372031, “Architecture and autoinhibitory mechanism of the plasma membrane Na^+/H^+ antiporter SOS1 in Arabidopsis” (Nature Communications, 2023).

Target: the molecule itself
Experiment: cryo-EM structure; single-particle cryo-EM of purified SOS1 in 20 mM HEPES pH 7.5, 150 mM NaCl, 5 mM β-ME, 0.007% GDN; two conformations (SOS1 at 2.8 Å, SOS1^expand at 3.4 Å)

B1: Arabidopsis thaliana Salt-overly-sensitive 1 (SOS1), full-length wild type (natural protein, UniProt Q9LKW9 1-1146, looked up)
chain: MTTVIDATMAYRFLEEATDSSSSSSSSKLESSPVDAVLFVGMSLVLGIASRHLLRGTRVPYTVALLVIGIALGSLEYGAKHNLGKIGHGIRIWNEIDPELLLAVFLPALLFESSFSMEVHQIKRCLGQMVLLAVPGVLISTACLGSLVKVTFPYEWDWKTSLLLGGLLSATDPVAVVALLKELGASKKLSTIIEGESLMNDGTAIVVFQLFLKMAMGQNSDWSSIIKFLLKVALGAVGIGLAFGIASVIWLKFIFNDTVIEITLTIAVSYFAYYTAQEWAGASGVLTVMTLGMFYAAFARTAFKGDSQKSLHHFWEMVAYIANTLIFILSGVVIAEGILDSDKIAYQGNSWRFLFLLYVYIQLSRVVVVGVLYPLLCRFGYGLDWKESIILVWSGLRGAVALALSLSVKQSSGNSHISKETGTLFLFFTGGIVFLTLIVNGSTTQFVLRLLRMDILPAPKKRILEYTKYEMLNKALRAFQDLGDDEELGPADWPTVESYISSLKGSEGELVHHPHNGSKIGSLDPKSLKDIRMRFLNGVQATYWEMLDEGRISEVTANILMQSVDEALDQVSTTLCDWRGLKPHVNFPNYYNFLHSKVVPRKLVTYFAVERLESACYISAAFLRAHTIARQQLYDFLGESNIGSIVINESEKEGEEAKKFLEKVRSSFPQVLRVVKTKQVTYSVLNHLLGYIENLEKVGLLEEKEIAHLHDAVQTGLKKLLRNPPIVKLPKLSDMITSHPLSVALPPAFCEPLKHSKKEPMKLRGVTLYKEGSKPTGVWLIFDGIVKWKSKILSNNHSLHPTFSHGSTLGLYEVLTGKPYLCDLITDSMVLCFFIDSEKILSLQSDSTIDDFLWQESALVLLKLLRPQIFESVAMQELRALVSTESSKLTTYVTGESIEIDCNSIGLLLEGFVKPVGIKEELISSPAALSPSNGNQSFHNSSEASGIMRVSFSQQATQYIVETRARAIIFNIGAFGADRTLHRRPSSLTPPRSSSSDQLQRSFRKEHRGLMSWPENIYAKQQQEINKTTLSLSERAMQLSIFGSMVNVYRRSVSFGGIYNNKLQDNLLYKKLPLNPAQGLVSAKSESSIVTKKQLETRKHACQLPLKGESSTRQNTMVESSDEEDEDEGIVVRIDSPSKIVFRNDL
notes: Arabidopsis thaliana SOS1 Na+/H+ antiporter, ecotype Columbia (Col-0) cDNA, 1146 residues; model holds residues 32-972, 1007-1017 and 1030-1048; Eluate was incubated with PreScission protease for 3 h before SEC; residues of the protease site may remain at the C-terminus; also called AtSOS1; SOS1-ClassII; source: HEK293F cells (Bac-to-Bac baculovirus, pEG-BacMam), purified (Streptactin beads, …)
  stoichiometry N: 2
